PMC5527686 (Journal of molecular biology, 2017)

Tests used:
SEC = biological target: the molecule itself; assay: SEC
AUC = biological target: the molecule itself; assay: AUC

| Protein | stoichiometry N (SEC) | stoichiometry N (AUC) |
| --- | --- | --- |
| IreB Y79E (purified recombinant) (natural protein, Enterococcus faecalis) MGFTDETVRFDFDDNRKKAISETLETVYRALEEKGYNPINQIVGYLLSGDPAYIPRYQDARNLIRRHERDEIMEELTKEYLANHGIDIK | 2 |  |
| IreB L81W (purified recombinant) (natural protein, Enterococcus faecalis) MGFTDETVRFDFDDNRKKAISETLETVYRALEEKGYNPINQIVGYLLSGDPAYIPRYQDARNLIRRHERDEIMEELTKYYWANHGIDIK | 2 |  |
| IreB (purified recombinant wild-type) (natural protein) MGFTDETVRFDFDDNRKKAISETLETVYRALEEKGYNPINQIVGYLLSGDPAYIPRYQDARNLIRRHERDEIMEELTKYYLANHGIDIK | 2 | 2.05 |
